From patent US20240352434, “COMPOSITIONS COMPRISING A VARIANT CAS12I3 POLYPEPTIDE AND USES THEREOF” (Arbor Biotechnologies, Inc., published 2024) come the findings set out here.

Positions count from the first letter of the chain named.

Sequences and labels used below:
T1: Cas12i3 T977R (Unidentified, T977R)
T1 chain: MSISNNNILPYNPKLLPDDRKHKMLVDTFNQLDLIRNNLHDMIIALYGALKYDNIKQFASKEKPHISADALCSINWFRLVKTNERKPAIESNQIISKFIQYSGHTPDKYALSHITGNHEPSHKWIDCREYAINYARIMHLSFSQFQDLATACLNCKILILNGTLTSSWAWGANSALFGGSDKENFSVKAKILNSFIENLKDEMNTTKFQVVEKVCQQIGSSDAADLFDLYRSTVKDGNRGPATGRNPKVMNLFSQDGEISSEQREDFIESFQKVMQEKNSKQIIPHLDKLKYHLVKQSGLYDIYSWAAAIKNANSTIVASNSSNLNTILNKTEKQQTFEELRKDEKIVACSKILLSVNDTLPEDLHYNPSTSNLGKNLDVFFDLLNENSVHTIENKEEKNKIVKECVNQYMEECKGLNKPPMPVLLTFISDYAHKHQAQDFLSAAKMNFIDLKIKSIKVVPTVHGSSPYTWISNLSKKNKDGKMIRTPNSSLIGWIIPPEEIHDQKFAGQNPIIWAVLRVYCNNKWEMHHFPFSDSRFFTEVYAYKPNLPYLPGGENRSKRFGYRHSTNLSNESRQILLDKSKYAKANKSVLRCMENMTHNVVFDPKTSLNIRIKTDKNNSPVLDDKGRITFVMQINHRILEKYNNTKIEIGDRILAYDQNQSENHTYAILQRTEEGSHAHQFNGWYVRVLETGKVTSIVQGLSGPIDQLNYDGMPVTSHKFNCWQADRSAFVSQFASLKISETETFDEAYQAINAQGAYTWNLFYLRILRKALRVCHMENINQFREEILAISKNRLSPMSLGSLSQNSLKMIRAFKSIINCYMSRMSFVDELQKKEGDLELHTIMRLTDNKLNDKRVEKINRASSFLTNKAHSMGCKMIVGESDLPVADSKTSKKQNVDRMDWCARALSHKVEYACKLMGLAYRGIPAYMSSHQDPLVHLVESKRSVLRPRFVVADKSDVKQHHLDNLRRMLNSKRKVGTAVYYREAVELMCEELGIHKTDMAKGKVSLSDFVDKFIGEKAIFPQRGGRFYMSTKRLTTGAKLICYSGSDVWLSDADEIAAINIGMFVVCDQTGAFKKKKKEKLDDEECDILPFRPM

T2: Cas12i3 K583R N711R C724R (Unidentified, K583R,N711R,C724R)
T2 chain: T1 chain with K583R, N711R, C724R, R977T

B1: AAVS1_T3 crRNA ; AAVS1_T3 target (ssRNA ; dsDNA)
RNA: AUAGUGUGUCCUUAGUUGACAUGUGAGAAUGGUGCGUCCUAG
DNA 1: GTGAGAATGGTGCGTCCTAG
DNA 2: CTAGGACGCACCATTCTCAC
B2: EMX1_T5 crRNA ; EMX1_T5 target (ssRNA ; dsDNA)
RNA: AUAGUGUGUCCUUAGUUGACAUUAUUAUUCCCAUAGGGAAGG
DNA 1: TATTATTCCCATAGGGAAGG
DNA 2: CCTTCCCTATGGGAATAATA
B3: VEGFA_T2 crRNA ; VEGFA_T2 target (ssRNA ; dsDNA)
RNA: AUAGUGUGUCCUUAGUUGACAUAAUCCUCCACCAGUCAUGGU
DNA 1: AATCCTCCACCAGTCATGGT
DNA 2: ACCATGACTGGTGGAGGATT

The target of one data set is T1, Cas12i3 T977R. Kind of data set: cell_activity; fold change in % indels, HEK293T; PAM not stated in example. Summed up:
(§1)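 HEK293T cells lipofected with Lipofectamine 2000 (crRNA omitted in negative controls). Harvested 72 h post-transfection and lysed in QuickExtract. Target loci amplified by two-round PCR and sequenced on NextSeq (150 cycles) to quantify % indels.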
With B1, the binding signal was 2.37 fold of wild-type.

Consider B2, for which the binding signal was 1.04 fold of wild-type.

Turning to B3, the binding signal was 1.35 fold of wild-type.

A further data set addresses T2, Cas12i3 K583R N711R C724R. Described as above. In outline:
as §1
Turning to B1, the binding signal is 2.96 fold of wild-type.

For the molecule B2, the binding signal was 1.99 fold of wild-type.

With B3, the binding signal was 2.57 fold of wild-type.
